According to US20240390512A1, “METHODS OF TREATING CHEMOTHERAPY-RESISTANT CANCER WITH AN ANTIBODY-DRUG CONJUGATE” (DAIICHI SANKYO COMPANY, LIMITED, priority 2021, published 2024):

T1: hCDH6-transfected 293T cells (Homo sapiens, UniProt P55285)
T1 construct: expressed in transfected cells; host or cells: 293T cells (ATCC)
T1 sequence (P55285 19-790): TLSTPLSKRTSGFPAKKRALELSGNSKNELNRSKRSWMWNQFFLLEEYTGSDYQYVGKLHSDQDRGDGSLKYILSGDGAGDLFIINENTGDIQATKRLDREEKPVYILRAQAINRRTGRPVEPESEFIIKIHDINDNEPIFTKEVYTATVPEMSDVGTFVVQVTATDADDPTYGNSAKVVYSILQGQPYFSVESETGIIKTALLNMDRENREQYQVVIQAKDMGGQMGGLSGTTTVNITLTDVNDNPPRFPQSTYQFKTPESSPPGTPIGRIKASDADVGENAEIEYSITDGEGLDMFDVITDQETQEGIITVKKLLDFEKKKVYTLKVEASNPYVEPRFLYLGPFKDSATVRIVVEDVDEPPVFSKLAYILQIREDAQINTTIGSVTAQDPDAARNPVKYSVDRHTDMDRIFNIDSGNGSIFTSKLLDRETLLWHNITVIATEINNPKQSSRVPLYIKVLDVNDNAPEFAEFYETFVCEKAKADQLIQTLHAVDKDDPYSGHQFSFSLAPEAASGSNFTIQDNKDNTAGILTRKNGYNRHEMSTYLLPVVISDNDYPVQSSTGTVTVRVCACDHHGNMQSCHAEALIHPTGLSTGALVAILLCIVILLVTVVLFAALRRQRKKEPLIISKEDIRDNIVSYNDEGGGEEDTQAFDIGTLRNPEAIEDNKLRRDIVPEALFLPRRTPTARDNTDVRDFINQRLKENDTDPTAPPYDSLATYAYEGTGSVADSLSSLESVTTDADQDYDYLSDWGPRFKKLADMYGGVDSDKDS

B1: rG055: rat anti-human CDH6 monoclonal antibody produced by hybridoma rG055; variable regions SEQ ID NO: 20 and 25 (antibody, listed as Rattus norvegicus, V domains shown)
VL: DVQMTHSPSYLAASPGESVSISCKTSKNISNYLVWYQQKPGEAYKLLIYSGSTLQSGTPSRFSGSGSGTDFTLTIRSLEPEDFGLYFCQQYYEKPFTFGSGTKLEIKRA
VH: EVQLQESGPGLVRPSQSLSLSCSVTDYSITSNYWGWIRRFPGNKMEWMGYITYSGYTSYNPSLQSRISITRDTSKNQFFLQLNSVTAEDTATYYCARSINHGGYSYVVDAWGPGASVTVSS
B2: rG061: rat anti-human CDH6 monoclonal antibody produced by hybridoma rG061; variable regions SEQ ID NO: 40 and 45 (antibody, listed as Rattus norvegicus, V domains shown)
VL: DVQMTQSPSYLAASPGESVSISCKATKSISNYLAWYQQKPGEAYKVLIYSGSTLQSGTPSRFSGSGSGTDFTLTIRSLEPEDFGLYSCQQYYEKPLTFGSGTKLEIKRA
VH: EVQLQESGPGLVKPSQSLSLTCSVTGYSITTYYWGWIRKFPGNKMEWMGYISYSGRTSYNPSLKSRMSITRDASKNQFFLQLNSVTTDDTATYYCARSPINHGGYWYFDFWGPGTMVTVSS
B3: rG056: rat anti-human CDH6 monoclonal antibody produced by hybridoma rG056; variable regions SEQ ID NO: 30 and 35 (antibody, listed as Rattus norvegicus, V domains shown)
VL: DVQMTQSPSSLAASPGESVSISCRATKSIGIYLAWYQQKPGKTFKLLIYSGSTLQSGTPSRFSGSGSGTDFTLTIRSLEPEDFGLYFCQQFYENPFTFGSGTKLEIRRA
VH: EVQLQESGPGLVKPSQSLSLTCSVTDYSITTYFWGWIRKFPGNKMEWMGYMSYRGGTSYNPSLKSRISITRDTSKNQFFLQLNSVTTEDTATYYCARCPNYGGHSLVFDYWGQGVMVTVSS
B4: rG019: rat anti-human CDH6 monoclonal antibody produced by hybridoma rG019; variable regions SEQ ID NO: 10 and 15 (antibody, listed as Rattus norvegicus, V domains shown)
VL: DIQMTQSPSLLSASVGDRVTLNCKASQNIYKNLAWYQQKLGEGPKLLIYDANTLQTGIPSRFSGSGSGSDFTLTISSLQPEDVATYFCQQYYSGWAFGGVTNLELKRA
VH: QVQLQQSGAELVKPGSSVKISCKASGYTFTRNFMHWIKQQPGNGLEWIGWIYCGDGETEYNQKFNGKATLTADRSSSTAYMELSRLTSEDSAVYFCARGVYGGFAGGYFDFWGQGVMVTVSS

molecular target: T1, hCDH6-transfected 293T cells; assay: Binding ability of rat anti-CDH6 antibody by flow cytometry; settings: antibody final concentration 10 ng/mL
Protocol: The human CDH6-binding activity of the rat anti-CDH6 antibody produced in Reference Example 1)-7 was evaluated by flow cytometry. Using Lipofectamine 2000 (Thermo Fisher Scientific Inc.), pcDNA3.1-hCDH6 produced in Reference Example 1)-1 was transiently introduced into 293T cells (ATCC). The cells were cultured overnight under conditions of 37° C. and 5% CO2, and thereafter, a cell suspension was prepared. The suspension of the transfected 293T cells was centrifuged, and the supernatant was then removed. Thereafter, the cells were suspended by the addition of each of the 4 rat anti-CDH6 monoclonal antibodies (clone Nos: rG019, rG055, rG056 and rG061), which had been prepared in Reference Example 1)-7, or rat IgG control (R&D Systems, Inc.) (final concentration: 10 ng/mL). The cells were left standing at 4° C. for 1 hour. The cells were washed twice with PBS supplemented with 5% FBS, and then suspended by the addition of Anti-Rat IgG (whole molecule)-FITC antibody produced in rabbit (Sigma-Aldrich Co. LLC) that had been 50-fold diluted with PBS supplemented with 5% FBS. The cells were left standing at 4° C. for 1 hour. The cells were washed twice with PBS supplemented with 5% FBS, followed by detection using a flow cytometer (FC500; Beckman Coulter, Inc.). The data was analyzed using FlowJo (Tree Star, Inc.). In the histogram of FIG. 1, the abscissa depicts FITC fluorescence intensity indicating the amount of the antibody bound, and the ordinate depicts a cell count. […] The rat IgG control binds to neither of the cells. As a result, it was confirmed that the 4 produced rat anti-CDH6 monoclonal antibodies bind to 293T cells transfected with pcDNA3.1-hCDH6.

Binding to 293T cells transfected with pcDNA3.1-hCDH6, bind:
B1
B2
B3
B4
